Article doi:10.1101/2021.08.20.457142

B1: MKK6 D-site peptide / p38-alpha (MAPK14) L195A, full length (parent complex)
chain 1: SQSKGKKRNPGLKIPKEAFEQP
chain 2: MSQERPTFYRQELNKTVWEVPERYQNLSPVGSGAYGSVCAAFDTKTGHRVAVKKLSRPFQSIIHAKRTYRELRLLKHMKHENVIGLLDVFTPARSLEEFNDVYLVTHLMGADLNNIVKCQKLTDDHVQFLIYQILRGLKYIHSADIIHRDLKPSNLAVNEDCELKILDFGLARHTDDEMTGYVATRWYRAPEIMANWMHYNQTVDIWSVGCIMAELLTGRTLFPGTDHIDQLKLILRLVGTPGAELLKKISSESARNYIQSLAQMPKMNFANVFIGANPLAVDLLEKMLVLDSDKRITAAQALAHAYFAQYHDPDDEPVAEPYDQSFESRDFLIDEWKSLTYDEVISFVPPPLDQEEMES
B2: MKK7 D-site peptide (second D-site) / JNK1 alpha1 (MAPK8 isoform 1) L198A, full length (parent complex)
chain 1: SQPQRPRPTLQLPLANEAFEQP
chain 2: MSRSKRDNNFYSVEIGDSTFTVLKRYQNLKPIGSGAQGIVCAAYDAILERNVAIKKLSRPFQNQTHAKRAYRELVLMKCVNHKNIIGLLNVFTPQKSLEEFQDVYIVMELMDANLCQVIQMELDHERMSYLLYQMLCGIKHLHSAGIIHRDLKPSNIVVKSDCTLKILDFGLARTAGTSFMMTPYVVTRYYRAPEVIAGMGYKENVDLWSVGCIMGEMVCHKILFPGRDYIDQWNKVIEQLGTPCPEFMKKLQPTVRTYVENRPKYAGYSFEKLFPDVLFPADSEHNKLKASQARDLLSKMLVIDASKRISVDEALQHPYINVWYDPSEAEAPPPKIPDKQLDEREHTIEEWKELIYKEVMDLEERTKNGVIRGQPSPLAQVQQ

Variants of: B1

| Variant | screen value |
| --- | --- |
| chain 1 SQSVGKKRNPGLKIPKEAFEQP [chain 1 K4V] | 0.981 Z-score of the enrichment rate within one screen of 711 sequences |
| chain 1 SQSHGKKRNPGLKIPKEAFEQP [chain 1 K4H] | 0.888 Z-score of the enrichment rate within one screen of 711 sequences |
| chain 1 SQSKGKKRHPGLKIPKEAFEQP [chain 1 N9H] | 1.51 Z-score of the enrichment rate within one screen of 711 sequences |
| chain 1 SQSKGKVRNPGLKIPKEAFEQP [chain 1 K7V] | 0.633 Z-score of the enrichment rate within one screen of 711 sequences |
| chain 1 SQSKGKKANPALKIPKEAFEQP [chain 1 R8A, chain 1 G11A] | -0.109 Z-score of the enrichment rate within one screen of 711 sequences |
| chain 1 SQSKGKKRNPGLKGPKEAFEQP [chain 1 I14G] | -1.29 Z-score of the enrichment rate within one screen of 711 sequences |
| chain 1 SQSKGKKRNPGLKSPKEAFEQP [chain 1 I14S] | -1.38 Z-score of the enrichment rate within one screen of 711 sequences |
| chain 1 SQSKGKKRNPRLKIPKEAFEQP [chain 1 G11R] | 1.68 Z-score of the enrichment rate within one screen of 711 sequences |
| chain 1 SQSKGKKRNPMLKIPKEAFEQP [chain 1 G11M] | 1.24 Z-score of the enrichment rate within one screen of 711 sequences |
| chain 1 SQSKGKKRNPALKIPKEAFEQP [chain 1 G11A] | 1.13 Z-score of the enrichment rate within one screen of 711 sequences |
| chain 1 SQSKGKKRNPGLKIPDEAFEQP [chain 1 K16D] | -0.827 Z-score of the enrichment rate within one screen of 711 sequences |
| chain 1 SQSKGKKRNPGLKIPIEAFEQP [chain 1 K16I] | 1.8 Z-score of the enrichment rate within one screen of 711 sequences |
| chain 1 SQAKGKKRNPGLAIPKEAFEQP [chain 1 S3A, chain 1 K13A] | -0.319 Z-score of the enrichment rate within one screen of 711 sequences |
| chain 1 SQSKAKARNPGLKIPKEAFEQP [chain 1 G5A, chain 1 K7A] | 0.268 Z-score of the enrichment rate within one screen of 711 sequences |
| chain 1 SQNKGKKRNPGLKIPKEAFEQP [chain 1 S3N] | 1.29 Z-score of the enrichment rate within one screen of 711 sequences |
| chain 1 SQSKGRKRNPGLKIPKEAFEQP [chain 1 K6R] | 1.9 Z-score of the enrichment rate within one screen of 711 sequences |
| chain 1 SQSKGKKRAAGLKIPKEAFEQP [chain 1 N9A, chain 1 P10A] | 0.315 Z-score of the enrichment rate within one screen of 711 sequences |
| chain 1 SQSKGKKRNPALKIPAEAFEQP [chain 1 G11A, chain 1 K16A] | 0.278 Z-score of the enrichment rate within one screen of 711 sequences |
| chain 1 SQSKGKKRAPALKIPKEAFEQP [chain 1 N9A, chain 1 G11A] | 1.02 Z-score of the enrichment rate within one screen of 711 sequences |
| chain 1 SQSKGKKRNPGFKIPKEAFEQP [chain 1 L12F] | -0.853 Z-score of the enrichment rate within one screen of 711 sequences |
| chain 1 SQSKGKKRNPGKKIPKEAFEQP [chain 1 L12K] | -1.3 Z-score of the enrichment rate within one screen of 711 sequences |

Variants of: B2

| Variant | screen value |
| --- | --- |
| chain 1 L10C | -0.173 Z-score of the enrichment rate within one screen of 711 sequences |
| chain 1 Q11S | 1.45 Z-score of the enrichment rate within one screen of 711 sequences |
| chain 1 Q11F | 2.16 Z-score of the enrichment rate within one screen of 711 sequences |
| chain 1 Q11A | 1.44 Z-score of the enrichment rate within one screen of 711 sequences |
| chain 1 Q11P | 0.901 Z-score of the enrichment rate within one screen of 711 sequences |
| chain 1 P6A, chain 1 L10A | -0.724 Z-score of the enrichment rate within one screen of 711 sequences |
| chain 1 T9A, chain 1 P13A | 0.848 Z-score of the enrichment rate within one screen of 711 sequences |
| chain 1 P6K | 1.52 Z-score of the enrichment rate within one screen of 711 sequences |
| chain 1 P6Y | 0.933 Z-score of the enrichment rate within one screen of 711 sequences |
| chain 1 P6M | 1.27 Z-score of the enrichment rate within one screen of 711 sequences |
| chain 1 P6N | 1.28 Z-score of the enrichment rate within one screen of 711 sequences |
| chain 1 N16S | 1.15 Z-score of the enrichment rate within one screen of 711 sequences |
| chain 1 N16Q | 1.61 Z-score of the enrichment rate within one screen of 711 sequences |
| chain 1 Q4A, chain 1 N16A | 1.68 Z-score of the enrichment rate within one screen of 711 sequences |
| chain 1 A15D | 1.08 Z-score of the enrichment rate within one screen of 711 sequences |
| chain 1 A15N | 1.48 Z-score of the enrichment rate within one screen of 711 sequences |
| chain 1 P6A, chain 1 R7A | 0.187 Z-score of the enrichment rate within one screen of 711 sequences |
| chain 1 P3A, chain 1 L12A | -0.854 Z-score of the enrichment rate within one screen of 711 sequences |
| chain 1 P6A, chain 1 L14A | 0.556 Z-score of the enrichment rate within one screen of 711 sequences |
| chain 1 L12A, chain 1 L14A | -0.584 Z-score of the enrichment rate within one screen of 711 sequences |
| chain 1 L10A, chain 1 Q11A | -0.534 Z-score of the enrichment rate within one screen of 711 sequences |
| chain 1 R5L | 0.573 Z-score of the enrichment rate within one screen of 711 sequences |

| Variant | screen value |
| --- | --- |
| chain 1 R5S | 0.06 Z-score of the enrichment rate within one screen of 711 sequences |
| chain 1 R5Y | 0.459 Z-score of the enrichment rate within one screen of 711 sequences |
| chain 1 T9A, chain 1 L10A | -0.519 Z-score of the enrichment rate within one screen of 711 sequences |
| chain 1 P3A, chain 1 T9A | 0.956 Z-score of the enrichment rate within one screen of 711 sequences |
| chain 1 P8A | 0.456 Z-score of the enrichment rate within one screen of 711 sequences |
| chain 1 P8E | 0.296 Z-score of the enrichment rate within one screen of 711 sequences |
| chain 1 P3A, chain 1 Q11A | 1.08 Z-score of the enrichment rate within one screen of 711 sequences |
| chain 1 P3Q | 1.24 Z-score of the enrichment rate within one screen of 711 sequences |
| chain 1 P3W | 1.63 Z-score of the enrichment rate within one screen of 711 sequences |
| chain 1 Q4V | 1.56 Z-score of the enrichment rate within one screen of 711 sequences |
| chain 1 Q4D | 0.92 Z-score of the enrichment rate within one screen of 711 sequences |
| chain 1 Q4K | 1.91 Z-score of the enrichment rate within one screen of 711 sequences |
| chain 1 Q4C | 1.41 Z-score of the enrichment rate within one screen of 711 sequences |
| chain 1 L14P | 0.76 Z-score of the enrichment rate within one screen of 711 sequences |
| chain 1 L14H | 0.415 Z-score of the enrichment rate within one screen of 711 sequences |
| chain 1 L14Y | 0.328 Z-score of the enrichment rate within one screen of 711 sequences |
| chain 1 P6A, chain 1 P13A | 0.914 Z-score of the enrichment rate within one screen of 711 sequences |
| chain 1 P13M | 1.22 Z-score of the enrichment rate within one screen of 711 sequences |
| chain 1 P13G | 0.542 Z-score of the enrichment rate within one screen of 711 sequences |
| chain 1 P13K | 1.72 Z-score of the enrichment rate within one screen of 711 sequences |
| chain 1 L12G | -0.442 Z-score of the enrichment rate within one screen of 711 sequences |
| chain 1 L12Q | -0.624 Z-score of the enrichment rate within one screen of 711 sequences |
